Literature values, collected in paper PMC3000440.

How the values were obtained:
Met (Homo sapiens) = Met (Homo sapiens) (UniProt P08581)
EGFR (Homo sapiens) = EGFR (Homo sapiens) (UniProt P00533)
IGF-I (Homo sapiens) = IGF-I (Homo sapiens) (UniProt P05019)
IGF-IR (Homo sapiens) = IGF-IR (Homo sapiens) (UniProt P08069)
UniProt P08069, sequence (P08069 31-736, chain 1 of 2): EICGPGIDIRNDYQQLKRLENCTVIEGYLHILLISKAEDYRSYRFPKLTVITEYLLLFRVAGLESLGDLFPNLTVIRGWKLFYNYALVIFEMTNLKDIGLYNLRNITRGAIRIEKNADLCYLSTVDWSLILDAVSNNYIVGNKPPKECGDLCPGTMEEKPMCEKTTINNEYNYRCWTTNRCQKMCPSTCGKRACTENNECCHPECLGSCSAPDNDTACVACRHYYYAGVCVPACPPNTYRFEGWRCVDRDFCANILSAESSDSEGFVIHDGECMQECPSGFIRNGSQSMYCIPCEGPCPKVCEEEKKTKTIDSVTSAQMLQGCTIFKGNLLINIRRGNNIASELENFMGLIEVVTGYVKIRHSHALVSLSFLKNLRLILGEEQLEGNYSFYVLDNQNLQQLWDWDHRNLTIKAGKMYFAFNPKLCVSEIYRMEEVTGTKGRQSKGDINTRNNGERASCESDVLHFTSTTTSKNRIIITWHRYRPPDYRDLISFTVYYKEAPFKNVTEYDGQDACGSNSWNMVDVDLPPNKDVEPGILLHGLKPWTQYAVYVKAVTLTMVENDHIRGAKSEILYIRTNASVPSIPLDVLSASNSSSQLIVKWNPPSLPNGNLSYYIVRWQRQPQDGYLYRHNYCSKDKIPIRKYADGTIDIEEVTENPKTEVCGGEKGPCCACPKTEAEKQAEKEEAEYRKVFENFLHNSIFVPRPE
UniProt P08069, sequence (P08069 741-935, chain 2 of 2): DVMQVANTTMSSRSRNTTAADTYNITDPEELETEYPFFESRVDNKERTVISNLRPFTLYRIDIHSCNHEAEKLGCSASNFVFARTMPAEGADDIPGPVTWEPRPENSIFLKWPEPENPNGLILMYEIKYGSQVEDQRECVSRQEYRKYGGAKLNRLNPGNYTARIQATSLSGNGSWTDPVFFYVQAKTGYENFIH

UniProt P05019, sequence (P05019 49-118): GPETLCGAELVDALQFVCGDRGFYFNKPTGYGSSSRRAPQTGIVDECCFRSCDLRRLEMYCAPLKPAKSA
UniProt P08581, sequence (P08581 25-932): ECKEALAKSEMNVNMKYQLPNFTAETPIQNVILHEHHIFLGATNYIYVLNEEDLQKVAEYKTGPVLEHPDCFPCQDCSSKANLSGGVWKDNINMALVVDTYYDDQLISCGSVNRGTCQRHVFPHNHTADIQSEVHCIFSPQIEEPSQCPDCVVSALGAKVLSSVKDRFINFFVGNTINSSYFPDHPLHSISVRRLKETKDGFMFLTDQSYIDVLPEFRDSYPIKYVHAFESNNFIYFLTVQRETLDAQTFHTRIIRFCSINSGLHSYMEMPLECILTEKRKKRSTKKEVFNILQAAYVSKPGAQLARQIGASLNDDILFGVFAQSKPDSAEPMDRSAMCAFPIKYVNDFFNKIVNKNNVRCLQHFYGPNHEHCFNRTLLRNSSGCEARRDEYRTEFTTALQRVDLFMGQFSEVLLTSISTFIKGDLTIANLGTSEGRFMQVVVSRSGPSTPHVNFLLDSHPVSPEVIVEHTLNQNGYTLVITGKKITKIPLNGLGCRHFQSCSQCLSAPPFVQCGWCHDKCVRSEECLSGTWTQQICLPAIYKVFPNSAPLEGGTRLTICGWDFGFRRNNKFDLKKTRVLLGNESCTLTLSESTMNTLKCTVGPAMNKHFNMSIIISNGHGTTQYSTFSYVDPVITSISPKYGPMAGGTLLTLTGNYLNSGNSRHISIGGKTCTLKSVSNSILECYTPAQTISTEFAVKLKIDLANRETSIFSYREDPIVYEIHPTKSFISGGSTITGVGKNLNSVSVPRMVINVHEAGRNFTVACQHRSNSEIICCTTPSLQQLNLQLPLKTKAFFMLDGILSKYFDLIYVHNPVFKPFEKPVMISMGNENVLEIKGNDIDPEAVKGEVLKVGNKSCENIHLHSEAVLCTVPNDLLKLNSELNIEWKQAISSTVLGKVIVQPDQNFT

Kd (Met (Homo sapiens)): 1.5 nM | Kd (EGFR (Homo sapiens)): 87 nM | Kd (IGF-I (Homo sapiens)): 18 nM | Kd (IGF-IR (Homo sapiens)): 1.5 nM
Substance: decorin (from UniProt P07585)
